Non-standard residues stand in square brackets, D forms with d. No end group written: not given here. AEEA = NCCOCCOCC(=O)O
Tests used:
[1] = molecular target: T1, amyloid β1-42 (Aβ1-42) (UniProt P05067 672-713); experiment: cell-based or functional assay
[2] = molecular target: T1, amyloid β1-42 (Aβ1-42); experiment: ELISA, peptide coated, Aβ1-42 added (FIG. 21)
Procedure: (§1) BSA was from Sigma Aldrich. […] Plate coating was done at room temperature for 2 hours with shaking and then at 4° C. overnight. Plates were washed three times in PBST (PBS+0.05% tween), then blocked with 3% BSA in PBST for 1 hour at room temperature with shaking. […] Plates were then washed 4 times with PBST and monoclonal mouse anti-amyloid precursor protein/amyloid beta antibody, purchased from Cell Signaling Technology was added at a 1:500 dilution in 1% BSA in PBST and incubated for 1 hour at room temperature with shaking. Plates were washed 4× in PBST and donkey anti mouse HRP-conjugated secondary antibody from Jackson ImmunoResearch Laboratories was added at 1:10,000 in PBST and incubated 1 hour at room temperature with shaking, then washed 4 times in PBST. […] Sulfuric acid (5N) was added to each well to stop the reaction, and the absorbance at 492 nm was read on a Biotek Synergy II plate reader.

[3] = molecular target: T1, amyloid β1-42 (Aβ1-42); experiment: ELISA, peptide coated at 5 µg/ml, 150 nM Aβ1-42 added, anti-Aβ antibody, A492 (FIG. 3)
Procedure: as §1

[4] = molecular target: T1, amyloid β1-42 (Aβ1-42); experiment: ELISA, peptide coated, Aβ1-42 added, anti-Aβ antibody, absorbance at 492 nm (FIG. 21)
Procedure: as §1

[5] = molecular target: T1, amyloid β1-42 (Aβ1-42); experiment: ELISA, peptide coated at 5 µg/ml, 150 nM Aβ1-42 added, anti-Aβ antibody, A492 (FIG. 2)
Procedure: as §1

T1 sequence (P05067 672-713 limits assumed): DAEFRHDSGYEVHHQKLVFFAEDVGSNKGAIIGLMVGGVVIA

B1: cathepsin G (CG), full-length (enzyme, human, UniProt P08311 21-244, looked up)
chain: IIGGRESRPHSRPYMAYLQIQSPAGQSRCGGFLVREDFVLTAAHCWGSNINVTLGAHNIQRRENTQQHITARRAIRHPQYNQRTIQNDIMLLQLSRRVRRNRNVNPVALPRAQEGLRPGTLCTVAGWGRVSMRRGTDTLREVQLRVQRDRQCLRIFGSYDPRRQICVGDRRERKAAFKGDSGGPLLCNNVAHGIVSYGKSSGVPPEVFTRVSSFLPWIRTTMRS
With B1 the “IC50 of inhibition of Aβ1-42 fibrillation (Thioflavin T fluorescence)” value (shortened to “IC50 of inhibition … (Thioflavin T fluorescence)”) [1] was 3.8 nM, the “fold increase of the fibrillation IC50 in the presence of chymostatin” value [1] was 17 fold and the “molar ratio CG/Aβ1-42 at the IC50 of fibrillation” value [1] was 0.00038 molar ratio.

B2: CG-derived peptide CG119-144 (wild-type) (peptide)
peptide: GTLCTVAGWGRVSMRRGTDTLREVQL
B2: binds [2].

B3: CG-derived mutant peptide CG119-144 D137R (peptide)
peptide: GTLCTVAGWGRVSMRRGTRTLREVQL
With B3 the “IC50 of inhibition … (Thioflavin T fluorescence)” value [1] was 3100 nM and the “molar ratio peptide/Aβ1-42 at the IC50 of fibrillation” value [1] was 0.33 molar ratio.

B4: CG-derived mutant peptide CG119-144 E141PR (peptide)
peptide: GTLCTVAGWGRVSMRRGTDTLRPRVQL
B4: binds [2].

B5: 5RMP-modified CAP37-derived peptide 120-146 QR (peptide)
peptide: [AEEA][AEEA]RRRRGTRCQVAGWGSQRSGGRLSRFPRFVNVR
B5: binds [3].

B6: CAP37-derived peptide 120-146 WR 5RMP (peptide)
peptide: [AEEA][AEEA]RRRRGTRCQVAGWGSWRSGGRLSRFPRFVNVR
In the case of B6, the “IC50 of inhibition … (Thioflavin T fluorescence)” value [1] is reported as about 1000 nM and the “molar ratio peptide/Aβ1-42 at the IC50 of fibrillation” value [1] is reported as about 0.1 molar ratio.

B7: CG-derived mutant peptide CG119-144 ΔR129V130 (peptide)
peptide: GTLCTVAGWGSMRRGTDTLREVQL
B7: no binding [4].

B8: 5RMP-modified CAP37-derived peptide 20-44 CC (peptide)
peptide: [AEEA][AEEA]RRRRNQGRHFCGGALIHARFVMTAASCFQR
modifications: cysteine pairing not given here
notes: also called 20-44 CC 5RMP
B8: binds [3].

B9: cationic antimicrobial protein of 37 kDa (CAP37), full-length (enzyme, human, UniProt P20160 27-248, looked up)
chain: IVGGRKARPRQFPFLASIQNQGRHFCGGALIHARFVMTAASCFQSQNPGVSTVVLGAYDLRRRERQSRQTFSISSMSENGYDPQQNLNDLMLLQLDREANLTSSVTILPLPLQNATVEAGTRCQVAGWGSQRSGGRLSRFPRFVNVTVTPEDQCRPNNVCTGVLTRRGGICNGDGGTPLVCEGLAHGVASFSLGPCGRGPDFFTRVALFRDWIDGVLNNPGP
In the case of B9, the “IC50 of inhibition … (Thioflavin T fluorescence)” value [1] is reported as 876 nM, the “fold increase of the fibrillation IC50 in the presence of PMSF” value [1] is reported as 3.5 fold and the “molar ratio CAP37/Aβ1-42 at the IC50 of fibrillation” value [1] is reported as 0.091 molar ratio.

B10: CAP37-derived peptide 20-44 CC (wild-type) (peptide)
peptide: NQGRHFCGGALIHARFVMTAASCFQ
notes: also called CAP3720-44
B10: binds [5].

B11: CAP37-derived peptide 120-146 QR (wild-type) (peptide)
peptide: GTRCQVAGWGSQRSGGRLSRFPRFVNV
B11: binds [5].

B12: CAP37-derived peptide 120-146 WR (mutant) (peptide)
peptide: GTRCQVAGWGSWRSGGRLSRFPRFVNV
B12 was tested, and the “IC50 of inhibition … (Thioflavin T fluorescence)” value [1] was about 1000 nM and the “molar ratio peptide/Aβ1-42 at the IC50 of fibrillation” value [1] was about 0.1 molar ratio.
